In assay [1] the target is T1, purified recombinant human α5β1 integrin heterodimer, 6×His tagged (rh-α5β1); Acro Biosystems, cat. no. … (human, UniProt P08648 42-995; P05556 21-728).
T1 construct: bought recombinant heterodimer; also called rh-α5β1-6×His tagged protein; His-tagged-α5β1
Briefly: BLI (Octet), supernatant mAb on anti-mouse IgG Fc sensor, 20 nM rh-α5β1. An excerpt: Anti-Mouse IgG Fc biosensors were used to load each clone supernatant. Assay steps were as follows: Sensor Check (30s)-->Load Ab (700s)-->Quench (480s)-->Baseline(480s)-->Ab Assoc. (600s)-->Dissoc. (600s).

In assay [2] the target is T1, purified recombinant human α5β1 …. Briefly: ELISA, inhibition of rh-α5β1-His binding to coated FN, purified hybridoma mAb. The procedure:
Immulon4 HBX ELISA 96-well plates were coated with FN by incubation overnight at 4° C. with 2.5 μg/mL human FN (R&D Systems, Minneapolis, MN 55413, cat. no. 1918-FN) in 1×PBS (0.01M phosphate buffer and 0.154M NaCl, pH 7.4). Plates were then washed 3 times with Wash Buffer (1× Tris Buffered Saline containing 0.05% Tween20), blocked with 2% BSA in 1×TBS for 2 hours at room temperature (RT). […] Isotype control antibody (Control Ab; Ms IgG2a EMD Millipore Corp, Billerica, MA, cat. no. PP102) was used to normalize data across different assay runs. […] Following 1 hour at RT, the wells were washed 3 times, incubated with biotinylated Anti-6×His-Tag Ab (Invitrogen, Carlsbad, CA, cat. no. MAI-21315-BTIN) at 1:1000 in Standard Diluent for 1 hour, washed 3 times, incubated for 30 minutes with poly-HRP Streptavidin (Thermo Fisher Scientific, Waltham, MA, cat. no. N200), washed 4 times, incubated with TMB substrate (Thermo Fisher Scientific, Waltham, MA, cat. no. N301) for 2-5 minutes, followed by addition of ELISA Stop Solution (Invitrogen, Carlsbad, CA, cat. no. SS04). Absorbance 450 nm was measured. Data points were normalized to the isotype Control Ab values at each concentration and reported as % Absorbance 450 nm normalized to Control Ab. Non-linear regression analysis was used to fit curves (4-parameter) to the data using GraphPad Prism version 9.0.2 (GraphPad Software, LLC, San Diego, CA).
(An ELISA detects its analyte on a solid surface through an enzyme-linked reagent.)

Assay [3] deals with T2, recombinant mouse α5β1 (rm-α5β1) (Mus musculus, UniProt P09055+P11688).
T2 construct: purchased R&D Systems 7728-A5
T2 sequence (P11688 45-898 limits assumed): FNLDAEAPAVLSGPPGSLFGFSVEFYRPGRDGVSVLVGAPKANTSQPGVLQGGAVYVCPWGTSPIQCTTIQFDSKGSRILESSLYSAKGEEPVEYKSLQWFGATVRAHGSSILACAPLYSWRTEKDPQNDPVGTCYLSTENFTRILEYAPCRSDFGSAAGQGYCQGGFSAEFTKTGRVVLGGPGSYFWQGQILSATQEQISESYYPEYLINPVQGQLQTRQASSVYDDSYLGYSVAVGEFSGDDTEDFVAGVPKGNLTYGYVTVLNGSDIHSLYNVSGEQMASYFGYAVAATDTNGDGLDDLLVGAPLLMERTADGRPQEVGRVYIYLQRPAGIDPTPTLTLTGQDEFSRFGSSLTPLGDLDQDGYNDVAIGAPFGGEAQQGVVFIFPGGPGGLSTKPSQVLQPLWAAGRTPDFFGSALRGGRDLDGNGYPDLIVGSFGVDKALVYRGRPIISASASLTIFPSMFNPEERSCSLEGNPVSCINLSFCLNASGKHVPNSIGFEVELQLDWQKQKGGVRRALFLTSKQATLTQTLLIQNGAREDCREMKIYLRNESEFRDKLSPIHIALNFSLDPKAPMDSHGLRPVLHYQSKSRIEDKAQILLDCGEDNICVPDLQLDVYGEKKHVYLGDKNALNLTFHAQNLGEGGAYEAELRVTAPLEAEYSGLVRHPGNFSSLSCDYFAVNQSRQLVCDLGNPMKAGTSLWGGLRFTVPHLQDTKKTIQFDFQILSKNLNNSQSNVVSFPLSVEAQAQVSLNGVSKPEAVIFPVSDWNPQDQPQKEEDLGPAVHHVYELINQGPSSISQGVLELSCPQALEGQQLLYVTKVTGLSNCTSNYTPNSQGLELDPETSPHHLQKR
T2 sequence (P11688 899-999 limits assumed): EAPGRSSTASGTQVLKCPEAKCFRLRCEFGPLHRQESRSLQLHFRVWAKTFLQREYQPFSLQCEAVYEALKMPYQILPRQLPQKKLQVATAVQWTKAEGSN
T2 sequence (P09055 21-728 limits assumed): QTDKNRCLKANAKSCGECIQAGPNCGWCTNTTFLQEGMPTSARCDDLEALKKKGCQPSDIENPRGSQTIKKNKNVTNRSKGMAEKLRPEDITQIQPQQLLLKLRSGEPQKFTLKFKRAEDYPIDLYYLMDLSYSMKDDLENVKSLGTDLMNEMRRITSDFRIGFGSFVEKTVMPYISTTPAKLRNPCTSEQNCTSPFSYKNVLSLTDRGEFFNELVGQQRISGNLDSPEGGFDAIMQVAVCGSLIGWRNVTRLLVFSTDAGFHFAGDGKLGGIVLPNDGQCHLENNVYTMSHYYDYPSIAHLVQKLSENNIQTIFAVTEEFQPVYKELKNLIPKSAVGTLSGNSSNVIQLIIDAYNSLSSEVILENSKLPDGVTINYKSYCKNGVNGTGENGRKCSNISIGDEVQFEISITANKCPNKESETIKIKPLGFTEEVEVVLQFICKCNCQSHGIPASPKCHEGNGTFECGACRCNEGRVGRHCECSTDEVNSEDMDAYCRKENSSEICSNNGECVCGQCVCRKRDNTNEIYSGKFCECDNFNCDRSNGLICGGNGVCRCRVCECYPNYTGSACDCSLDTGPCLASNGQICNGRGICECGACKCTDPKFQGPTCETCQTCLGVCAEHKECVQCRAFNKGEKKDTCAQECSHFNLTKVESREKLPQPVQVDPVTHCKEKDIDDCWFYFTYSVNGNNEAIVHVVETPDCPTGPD
The experiment in a line: Plate-based ELISA cross-reactivity to rm-α5β1. The assay is classed as binding. The conditions noted are these: hybridoma supernatant diluted 1:10; plate coated with rm-α5β1. The procedure: The 249 positive hybridoma supernatants selected as described in Example 1 were screened for reactivity to rh-α5β1 in a plate-based ELISA. Immulon4 HBX ELISA 96-well plates (Thermo Fisher Scientific, Waltham, MA, cat. no. 3855) were coated with rh-α5β1 (R&D Systems, Minneapolis, MN 55413, cat. no. 3230-A5), at 1 μg/mL in PBS supplemented with 0.5 mM MgCl2, MnCl2 and CaCl2 and incubated overnight at 4° C. Plates were washed 3 times with Wash Buffer (1× Tris Buffered Saline containing 0.05% Tween20), blocked with 2% BSA in 1×TBS (made from 10× Thermo Scientific Blocker BSA (10×) in TBS; Thermo Fisher Scientific, Waltham, MA, cat. no. 37520) for 2 hours at room temperature (RT) then incubated with hybridoma supernatants diluted 1:10 with Standard Diluent (2% BSA, 1×TBS, 0.05% Tween20). Following a 1 hour incubation at RT, wells were washed 3 times, incubated with biotinylated goat anti-mouse secondary antibody at 1:8000 dilution (Invitrogen, Carlsbad, CA, cat. no. 62-6540) for 1 hour, washed 3 times, then incubated for 30 minutes with poly-HRP Streptavidin (Thermo Fisher Scientific, Waltham, MA, cat. no. N200), washed 4 times, incubated with TMB (Thermo Fisher Scientific, Waltham, MA, cat. no. N301) for 5-10 minutes, followed by addition of ELISA Stop Solution (Invitrogen, Carlsbad, CA, cat. no. SS04). Absorbance 450 nm was measured.
In addition, hybridomas were tested for cross-reactivity to recombinant mouse α5β1 (rm-α5β1; R&D Systems, Minneapolis, MN 55413; cat. no. 7728-A5) using the same protocol as above except that the plates were coated with rm-α5β1.

In assay [4] the target is T3, recombinant human α5β1 integrin (rh-α5β1; R&D Systems, cat. no. 3230-A5) (human, UniProt P08648 42-995; P05556 21-728).
T3 construct: bought recombinant heterodimer
T3 sequence (P08648 42-995 limits assumed, form in doubt, chain 1 of 2): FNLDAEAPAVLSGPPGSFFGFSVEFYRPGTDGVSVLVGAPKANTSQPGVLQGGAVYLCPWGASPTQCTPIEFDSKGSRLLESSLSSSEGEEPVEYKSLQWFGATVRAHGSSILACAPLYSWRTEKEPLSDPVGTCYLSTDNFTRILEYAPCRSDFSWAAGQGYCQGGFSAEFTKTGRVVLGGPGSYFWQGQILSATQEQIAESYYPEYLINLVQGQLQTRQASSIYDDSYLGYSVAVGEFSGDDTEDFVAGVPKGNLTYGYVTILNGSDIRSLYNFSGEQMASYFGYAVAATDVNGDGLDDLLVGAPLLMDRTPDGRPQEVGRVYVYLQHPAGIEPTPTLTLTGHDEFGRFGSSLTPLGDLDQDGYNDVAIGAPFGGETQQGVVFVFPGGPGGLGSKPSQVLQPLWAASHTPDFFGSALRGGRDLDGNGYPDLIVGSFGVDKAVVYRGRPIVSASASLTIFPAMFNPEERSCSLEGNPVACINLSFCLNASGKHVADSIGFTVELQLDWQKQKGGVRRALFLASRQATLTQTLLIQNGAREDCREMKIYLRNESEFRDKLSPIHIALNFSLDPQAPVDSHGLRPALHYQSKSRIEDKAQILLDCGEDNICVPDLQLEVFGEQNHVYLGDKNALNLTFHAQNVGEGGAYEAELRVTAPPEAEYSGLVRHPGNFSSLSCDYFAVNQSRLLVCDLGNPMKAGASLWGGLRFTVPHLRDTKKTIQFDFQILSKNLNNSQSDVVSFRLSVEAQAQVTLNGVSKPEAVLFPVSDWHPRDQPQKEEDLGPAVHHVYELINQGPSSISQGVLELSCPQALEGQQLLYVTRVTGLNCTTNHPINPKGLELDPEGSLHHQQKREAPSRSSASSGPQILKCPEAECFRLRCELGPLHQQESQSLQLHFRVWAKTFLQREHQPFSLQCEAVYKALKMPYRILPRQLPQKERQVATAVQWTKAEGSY
T3 sequence (P05556 21-728 limits assumed, form in doubt, chain 2 of 2): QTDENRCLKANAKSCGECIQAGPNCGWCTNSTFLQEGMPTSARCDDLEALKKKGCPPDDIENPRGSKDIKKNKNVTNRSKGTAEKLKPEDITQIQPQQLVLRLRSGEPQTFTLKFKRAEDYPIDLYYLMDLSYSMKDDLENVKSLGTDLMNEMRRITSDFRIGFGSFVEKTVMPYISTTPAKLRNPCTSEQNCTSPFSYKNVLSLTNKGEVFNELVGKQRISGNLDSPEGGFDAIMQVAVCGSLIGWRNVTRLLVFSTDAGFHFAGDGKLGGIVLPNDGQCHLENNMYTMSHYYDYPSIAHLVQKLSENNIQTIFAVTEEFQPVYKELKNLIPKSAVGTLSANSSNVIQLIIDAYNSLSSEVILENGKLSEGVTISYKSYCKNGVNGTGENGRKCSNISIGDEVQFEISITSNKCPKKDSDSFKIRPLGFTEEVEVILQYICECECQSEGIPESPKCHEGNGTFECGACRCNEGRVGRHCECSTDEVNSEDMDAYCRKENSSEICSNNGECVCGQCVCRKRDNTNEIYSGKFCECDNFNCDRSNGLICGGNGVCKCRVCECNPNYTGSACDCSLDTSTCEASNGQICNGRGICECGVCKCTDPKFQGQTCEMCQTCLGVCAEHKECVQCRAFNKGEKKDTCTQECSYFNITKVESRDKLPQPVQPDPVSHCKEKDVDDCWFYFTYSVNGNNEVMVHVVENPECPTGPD
The experiment in a line: ELISA, coated rh-α5β1, supernatant 1:10. The method, then: Plates were washed 3 times with Wash Buffer (1× Tris Buffered Saline containing 0.05% Tween20), blocked with 2% BSA in 1×TBS (made from 10× Thermo Scientific Blocker BSA (10×) in TBS; Thermo Fisher Scientific, Waltham, MA, cat. no. 37520) for 2 hours at room temperature (RT) then incubated with hybridoma supernatants diluted 1:10 with Standard Diluent (2% BSA, 1×TBS, 0.05% Tween20). […] Absorbance 450 nm was measured.

T1 sequence (P08648 42-995 limits assumed, form in doubt, chain 1 of 2): as the sequence (P08648 42-995 limits assumed, form in doubt, chain 1 of 2) above
T1 sequence (P05556 21-728 limits assumed, form in doubt, chain 2 of 2): as the sequence (P05556 21-728 limits assumed, form in doubt, chain 2 of 2) above

B1: A-15B08 (antibody, V domains shown)
VH: QVQLKESGPGLVAPSQSLSITCTISGFSLTSYGVHWVRQPPGKGLEWLVVIWSDGSTTYNSTLKSRLSISKDNSKSQVFFKMNSLQTDDTAMYYCARHYDYDGDWFAYWGQGTLVTVSA
VL: QIVLTQSPAIMSASLGERVTMTCTASSRVSSNSLHWYQQKPGSSPKLWIYSTSNLASGVPARFSGSGSGTSYSLTISSMEAEDAATYYCHQYLRSPPTFGGGTKLEIK
notes: mouse hybridoma antibody; also called A-15B08 (hybridoma)
For the molecule B1, in assay [1], the Kd – broadly, the equilibrium constant for the complex coming apart – worked out at 1.31 nM; the koff (commonly the rate constant with which the complex falls apart) turned out to be 0.000431 s⁻¹; the kon (usually the second-order rate constant of association) was 328000 M⁻¹ s⁻¹. Further, the “% Max Inhibition” value in assay [2] is 96%.

B2: A-3A08: hybridoma clone positive on K562 cells (antibody, V domains shown)
VH: QVQLKESGPGLVAPSQSLSITCTISGFSLTTYGVHWVRQPPGKGLEWLVVIWSDGSTTYNSALKSRLNITKDNSKSQVFLKMNSLQTDDTAMYYCVRHGGLLRRDAMDYWGQGTSVTVSS
VL: QIVLTQSPAIMSASLGERVTMTCTASSSVSSNSFHWYQQKPGSSPKLWLYSTSNLASGVPARFSGSGSGTSYSLTISSMEAEDAATYYCHQYLRSPPTFGGGTKLEIK
Consider B2, for which the “Absorbance 450 nm Mouse α5β1” value in assay [3] is recorded as 0.6708.

B3: A2-3B06 (antibody, V domains shown)
VH: QVQLKESGPGLVAPSQSLSITCTISGFSLTTYGVHWVRQPPGKGLEWLVVIWSDGSTTYNSALKSRLNITKDNSKSQVFLKMNSLQTDDTAMYYCVRHGGLLRRDAMDYWGQGTSVTVSS
VL: QIVLTQSPAIMSASLGERVTMTCTASSSVSSNSFHWYQQKPGSSPKLWLYSTSNLASGVPARFSGSGSGTSYSLTISSMEAEDAATYYCHQYLRSPPTFGGGTKLEIK
notes: mouse hybridoma antibody
For the molecule B3, the “Absorbance 450 nm” value in assay [4] was 2.03. Besides, in assay [1], the Kd turned out to be 4.74 nM, the koff turned out to be 0.00137 s⁻¹ and the kon is 289000 M⁻¹ s⁻¹. Also, the “% Max Inhibition” value in assay [2] stood at 93%.

B4: C-14D12 (antibody, V domains shown)
VH: QVQLKESGPDLVAPSQSLSITCTVSGFSLTDYGVHWVRQPPGKGLEWLVVIWSDGSTTYNSALKSRLSITKDTSKRQVFLKMNSLQTDDTAMYYCARHAPSFIRYGSRYDALDYWGQGTSVTVSS
VL: QIVLTQSPAIMSASLGERVTLTCTASSSVTSSFLHWYQQKPGSSPKLWIYSTSNLASGVPARFSGSGSGTSYSLTISSMEAEDAATYYCHQYHRSPPTFGGGTKLEIK
notes: mouse hybridoma antibody; also called C-14D12 (hybridoma)
As to B4, in assay [1], the Kd came to 0.379 nM, the koff was found to be 9.94e-05 s⁻¹ and the kon was 263000 M⁻¹ s⁻¹. Further, in assay [2], the “% Max Inhibition” value worked out at 96%.

For the origin of these results see patent US20240279345A1, “ALPHA 5 BETA 1 INTEGRIN BINDING AGENTS AND USES THEREOF” (PASITHEA THERAPEUTICS CORP., priority 2021, published 2024).
